# Measured values as given in IntAct's records for PubMed 29997244.
# B1: DnaJ homolog subfamily C member 5 (Homo sapiens), Q9H3Z4 (parent)
# chain: MADQRQRSLSTSGESLYHVLGLDKNATSDDIKKSYRKLALKYHPDKNPDNPEAADKFKEINNAHAILTDATKRNIYDKYGSLGLYVAEQFGEENVNTYFVLSSWWAKALFVFCGLLTCCYCCCCLCCCFNCCCGKCKPKAPEGEETEFYVSPEDLEAQLQSDEREATDTPIVIQPASATETTQLTADSHPSYHTDGFN
# partner: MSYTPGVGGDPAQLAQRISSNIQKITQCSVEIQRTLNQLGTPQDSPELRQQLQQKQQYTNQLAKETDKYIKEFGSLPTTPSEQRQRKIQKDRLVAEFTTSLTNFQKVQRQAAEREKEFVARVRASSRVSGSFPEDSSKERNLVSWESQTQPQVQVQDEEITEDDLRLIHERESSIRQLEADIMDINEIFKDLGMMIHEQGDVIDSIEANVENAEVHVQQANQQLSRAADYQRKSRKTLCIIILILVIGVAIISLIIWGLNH
# B2: DnaJ homolog subfamily C member 5 (Homo sapiens), Q9H3Z4 (parent)
# chain: B1 chain
# partner: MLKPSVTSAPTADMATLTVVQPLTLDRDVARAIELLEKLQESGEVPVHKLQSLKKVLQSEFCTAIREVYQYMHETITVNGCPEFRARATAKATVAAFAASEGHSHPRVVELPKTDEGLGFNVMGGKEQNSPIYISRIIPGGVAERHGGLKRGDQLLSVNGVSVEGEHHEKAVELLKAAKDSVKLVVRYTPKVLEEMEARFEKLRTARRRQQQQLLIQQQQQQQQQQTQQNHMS
# B3: DnaJ homolog subfamily C member 5 (Homo sapiens), Q9H3Z4 (parent)
# chain: B1 chain
# partner: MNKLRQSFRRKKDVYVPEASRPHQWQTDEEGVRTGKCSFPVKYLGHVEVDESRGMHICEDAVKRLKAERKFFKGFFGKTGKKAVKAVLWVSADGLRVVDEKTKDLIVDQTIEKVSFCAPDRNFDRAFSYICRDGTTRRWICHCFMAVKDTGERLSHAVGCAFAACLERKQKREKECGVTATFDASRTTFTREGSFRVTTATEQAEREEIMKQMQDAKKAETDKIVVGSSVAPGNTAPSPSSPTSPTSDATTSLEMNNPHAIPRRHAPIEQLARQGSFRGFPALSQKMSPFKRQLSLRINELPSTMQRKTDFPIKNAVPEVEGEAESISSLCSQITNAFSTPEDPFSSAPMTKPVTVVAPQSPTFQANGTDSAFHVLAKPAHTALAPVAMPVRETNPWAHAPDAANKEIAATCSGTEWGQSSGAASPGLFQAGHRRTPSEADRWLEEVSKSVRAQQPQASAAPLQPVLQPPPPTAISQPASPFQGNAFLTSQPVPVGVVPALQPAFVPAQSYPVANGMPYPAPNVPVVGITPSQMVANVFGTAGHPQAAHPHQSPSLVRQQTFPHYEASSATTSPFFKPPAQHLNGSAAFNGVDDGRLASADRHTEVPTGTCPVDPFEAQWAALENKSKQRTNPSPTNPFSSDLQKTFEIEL
# B4: DnaJ homolog subfamily C member 5 (Homo sapiens), Q9H3Z4 (parent)
# chain: B1 chain
# partner: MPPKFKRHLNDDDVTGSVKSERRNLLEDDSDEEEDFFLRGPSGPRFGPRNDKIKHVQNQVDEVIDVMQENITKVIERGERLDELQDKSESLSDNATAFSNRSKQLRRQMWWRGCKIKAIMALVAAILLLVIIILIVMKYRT
# B5: DnaJ homolog subfamily C member 5 (Homo sapiens), Q9H3Z4 (parent)
# chain: B1 chain
# partner: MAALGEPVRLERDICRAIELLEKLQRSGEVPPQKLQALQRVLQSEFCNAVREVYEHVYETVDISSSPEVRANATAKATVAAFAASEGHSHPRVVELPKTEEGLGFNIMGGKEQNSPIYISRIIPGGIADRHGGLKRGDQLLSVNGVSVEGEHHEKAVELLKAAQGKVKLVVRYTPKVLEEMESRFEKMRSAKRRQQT
# B6: DnaJ homolog subfamily C member 5 (Homo sapiens), Q9H3Z4 (parent)
# chain: B1 chain
# partner: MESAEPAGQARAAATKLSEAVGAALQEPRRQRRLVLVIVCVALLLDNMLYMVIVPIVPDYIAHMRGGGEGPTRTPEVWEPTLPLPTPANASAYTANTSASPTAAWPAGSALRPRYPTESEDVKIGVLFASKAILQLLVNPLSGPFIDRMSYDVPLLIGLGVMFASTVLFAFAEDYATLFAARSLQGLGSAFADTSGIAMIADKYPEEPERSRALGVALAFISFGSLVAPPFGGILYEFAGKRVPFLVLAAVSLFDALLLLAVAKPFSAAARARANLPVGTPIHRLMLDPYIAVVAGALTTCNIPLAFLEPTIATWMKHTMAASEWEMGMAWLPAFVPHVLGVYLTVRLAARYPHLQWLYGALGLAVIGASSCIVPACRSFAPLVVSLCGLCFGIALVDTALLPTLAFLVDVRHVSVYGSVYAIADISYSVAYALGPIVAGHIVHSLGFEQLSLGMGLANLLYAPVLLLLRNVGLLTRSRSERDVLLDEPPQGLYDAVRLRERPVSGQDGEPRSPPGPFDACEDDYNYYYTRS
# B7: DnaJ homolog subfamily C member 5 (Homo sapiens), Q9H3Z4 (parent)
# chain: B1 chain
# partner: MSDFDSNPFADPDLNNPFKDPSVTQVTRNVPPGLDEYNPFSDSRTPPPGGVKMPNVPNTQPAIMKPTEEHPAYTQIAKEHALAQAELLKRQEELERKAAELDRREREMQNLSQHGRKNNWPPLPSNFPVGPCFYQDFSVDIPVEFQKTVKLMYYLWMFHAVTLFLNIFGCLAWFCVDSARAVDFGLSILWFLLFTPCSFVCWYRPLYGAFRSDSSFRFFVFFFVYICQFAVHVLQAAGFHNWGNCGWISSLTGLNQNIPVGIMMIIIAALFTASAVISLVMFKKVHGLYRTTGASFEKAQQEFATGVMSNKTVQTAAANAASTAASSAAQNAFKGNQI
# B8: DnaJ homolog subfamily C member 5 (Homo sapiens), Q9H3Z4 (parent)
# chain: B1 chain
# partner: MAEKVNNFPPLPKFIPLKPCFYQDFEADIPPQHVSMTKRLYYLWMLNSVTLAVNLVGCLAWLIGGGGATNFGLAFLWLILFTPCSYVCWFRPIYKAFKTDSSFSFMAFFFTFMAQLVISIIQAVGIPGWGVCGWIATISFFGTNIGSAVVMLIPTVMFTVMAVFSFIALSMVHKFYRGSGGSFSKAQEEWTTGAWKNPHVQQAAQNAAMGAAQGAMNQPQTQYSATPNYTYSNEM
# Variants of: B1
# Settings: with stx7_human STX7, O15400
row,Variant,effect of a mutation on the interaction
1,L115R,decreasing interaction strength

# Variants of: B2
# Settings: with lin7a_human LIN7A
row,Variant,effect of a mutation on the interaction
1,L115R,with no effect

# Variants of: B3
# Settings: with numb_human NUMB
row,Variant,effect of a mutation on the interaction
1,L115R,with no effect

# Variants of: B4
# Settings: with vamp4_human VAMP4, O75379
row,Variant,effect of a mutation on the interaction
1,L115R,with no effect

# Variants of: B5
# Settings: with lin7c_human LIN7C
row,Variant,effect of a mutation on the interaction
1,L115R,with no effect

# Variants of: B6
# Settings: with vacht_human SLC18A3, Q16572
row,Variant,effect of a mutation on the interaction
1,L115R,with no effect

# Variants of: B7
# Settings: with scam1_human SCAMP1, O15126
row,Variant,effect of a mutation on the interaction
1,L115R,with no effect

# Variants of: B8
# Settings: with scam5_human SCAMP5, Q8TAC9
row,Variant,effect of a mutation on the interaction
1,L115R,with no effect
